This is an account of results in article PMC10784492, “De novo biosynthesis of antiarrhythmic alkaloid ajmaline” (Nature Communications, 2024).

The target of data set [1] is T1, RsNNMT (Rauvolfia serpentina, UniProt A0A075D6M1).
T1 construct: gene NNMT; N-terminal His tag, purified from E. coli
In words: LC-MS/MS detection of ajmaline in coupled reaction. Format: biochemical. The conditions noted are these: 100 μM SAM, 20 mM Tris-HCl pH 7.5, 30 °C; norajmaline formed in situ by RsAAE1/2.

Substrate in data set [2]: C/C=C1/[C@@H](O)N2[C@H]3C[C@@]45c6ccccc6N[C@H]4[C@@H]2C[C@@H]1C3[C@H]5OC(C)=O
Briefly: LC-MS/MS product quantification, Michaelis-Menten fit. Format: biochemical, Rauvolfia serpentina. The conditions noted are these: 1 mM NADPH, 20 mM Tris-HCl pH 7.5, 30 °C, 2 min, 19,20-reduction. The source says:
LC-MS/MS product quantification, Michaelis-Menten fit on tDHVR (RsRR4, N-terminal truncated; tRR4)

T1 sequence (A0A075D6M1 whole entry): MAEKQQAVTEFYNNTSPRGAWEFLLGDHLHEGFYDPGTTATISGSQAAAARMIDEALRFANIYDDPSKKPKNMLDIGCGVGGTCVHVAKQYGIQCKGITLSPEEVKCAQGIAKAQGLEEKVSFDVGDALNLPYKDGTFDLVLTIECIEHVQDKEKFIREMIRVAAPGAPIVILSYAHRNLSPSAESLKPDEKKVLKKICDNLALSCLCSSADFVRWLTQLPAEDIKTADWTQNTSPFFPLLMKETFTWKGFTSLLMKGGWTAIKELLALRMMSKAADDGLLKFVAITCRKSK

`CC[C@H]1[C@@H]2C[C@H]3[C@@H]4Nc5ccccc5[C@]45C[C@@H]([C@H]2[C@H]5O)N3[C@@H]1O` [norajmaline]: the “LC-MS/MS detection of ajmaline in coupled reaction” value in data set [1] is “ajmaline, also confirmed with an authentic standard, was produced at the expense of norajmaline”.

B1: tDHVR (RsRR4, N-terminal truncated; tRR4) (Rauvolfia serpentina) (protein)
chain: MAGKSPEEQHPVKAYGWAATDSSGILSPFKFSRRATGDHDVRVKILYAGVCHSDLQSARNDMGCFTYPLVPGFETVGTATEVGSKVTKVKVGDKVAVGIMVGSCGKCDECVNDRECYCPEVITSYGRIDHDGTPTYGGFSSETVANEKFVFCFPEKLPMAAGAPLLNAGVSVYSAMRFYGLDKPGMHLGVVGLGGLGHLAVKFAKAFGVKVTVISTSTSKKGEAINDLGADAFLVSTDAEQMQAGSGTLDGILDTVPVVHPIEALLGLLKNHTKLVLVGATMGSFELPILPLGVGRKSVVSTIGGSTKETQEMLDFAAEHDITASVEIIPMDYVNTAMERIEKGDVRYRFVIDIGNTLTPPES
notes: N-terminally truncated 363-residue version of the 413-residue full protein (extra N-terminal 50 removed); his-tagged in pET30b(+), E. coli, Ni-NTA; OQ591882 is printed for both DHVR and RsAAE1
As for B1, in data set [2], the Km is listed as 32.0 µM and the kcat is 10.4 s⁻¹.
